How the values were obtained:
Centromere B [1] = molecular target: T1, Centromere B (UniProt P07199); assay: AtheNA, Ab 12.5 ug/ml
T1 sequence (looked up): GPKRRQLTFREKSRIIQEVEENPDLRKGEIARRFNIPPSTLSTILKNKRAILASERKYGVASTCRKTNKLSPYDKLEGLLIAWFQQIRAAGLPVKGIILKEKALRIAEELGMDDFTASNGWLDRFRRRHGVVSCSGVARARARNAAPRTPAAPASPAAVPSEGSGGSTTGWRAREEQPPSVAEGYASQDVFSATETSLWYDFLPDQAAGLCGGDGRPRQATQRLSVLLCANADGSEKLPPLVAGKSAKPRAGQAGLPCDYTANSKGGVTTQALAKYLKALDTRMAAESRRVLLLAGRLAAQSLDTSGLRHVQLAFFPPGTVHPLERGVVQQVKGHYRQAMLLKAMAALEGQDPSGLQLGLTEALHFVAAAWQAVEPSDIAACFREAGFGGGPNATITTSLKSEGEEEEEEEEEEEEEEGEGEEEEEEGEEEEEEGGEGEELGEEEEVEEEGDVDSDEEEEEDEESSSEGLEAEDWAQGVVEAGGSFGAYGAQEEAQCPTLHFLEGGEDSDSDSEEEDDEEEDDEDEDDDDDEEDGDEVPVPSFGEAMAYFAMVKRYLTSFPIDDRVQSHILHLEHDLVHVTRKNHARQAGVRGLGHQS

Scl-70 [2] = molecular target: Scl-70 (UniProt P11387); assay: AtheNA, Ab 12.5 ug/ml
Sm (Smith antigen) [3] = assay: AtheNA, Ab 12.5 ug/ml
Jo-1 [4] = molecular target: T2, Jo-1 (UniProt P12081); assay: AtheNA, Ab 12.5 ug/ml
T2 sequence (looked up): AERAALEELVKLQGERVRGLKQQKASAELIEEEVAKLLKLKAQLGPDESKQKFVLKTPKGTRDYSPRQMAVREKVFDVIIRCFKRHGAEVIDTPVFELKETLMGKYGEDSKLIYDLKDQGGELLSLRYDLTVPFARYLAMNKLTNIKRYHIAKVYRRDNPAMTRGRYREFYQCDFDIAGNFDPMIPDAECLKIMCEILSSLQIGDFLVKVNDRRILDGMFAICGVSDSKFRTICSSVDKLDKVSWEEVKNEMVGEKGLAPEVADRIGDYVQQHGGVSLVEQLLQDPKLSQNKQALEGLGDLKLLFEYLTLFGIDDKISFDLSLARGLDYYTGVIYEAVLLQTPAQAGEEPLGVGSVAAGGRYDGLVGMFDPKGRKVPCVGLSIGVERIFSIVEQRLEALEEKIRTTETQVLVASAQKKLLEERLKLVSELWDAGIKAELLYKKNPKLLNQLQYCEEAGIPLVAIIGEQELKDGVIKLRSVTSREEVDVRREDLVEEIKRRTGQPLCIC

SSB [5] = molecular target: SSB (UniProt P05455); assay: AtheNA, Ab 12.5 ug/ml
Histones [6] = assay: AtheNA, Ab 12.5 ug/ml
SSA [7] = assay: AtheNA, Ab 12.5 ug/ml
RNP (ribonucleoprotein) [8] = assay: AtheNA, Ab 12.5 ug/ml
Centromere B [9] = molecular target: T1, Centromere B; assay: AtheNA, Ab 25 ug/ml
Scl-70 [10] = molecular target: Scl-70 (UniProt P11387); assay: AtheNA, Ab 25 ug/ml
Sm (Smith antigen) [11] = assay: AtheNA, Ab 25 ug/ml
Jo-1 [12] = molecular target: T2, Jo-1; assay: AtheNA, Ab 25 ug/ml
SSB [13] = molecular target: SSB (UniProt P05455); assay: AtheNA, Ab 25 ug/ml
Histones [14] = assay: AtheNA, Ab 25 ug/ml
SSA [15] = assay: AtheNA, Ab 25 ug/ml
RNP (ribonucleoprotein) [16] = assay: AtheNA, Ab 25 ug/ml
Centromere B [17] = molecular target: T1, Centromere B; assay: AtheNA, Ab 6.25 ug/ml
Scl-70 [18] = molecular target: Scl-70 (UniProt P11387); assay: AtheNA, Ab 6.25 ug/ml
Sm (Smith antigen) [19] = assay: AtheNA, Ab 6.25 ug/ml
Jo-1 [20] = molecular target: T2, Jo-1; assay: AtheNA, Ab 6.25 ug/ml
SSB [21] = molecular target: SSB (UniProt P05455); assay: AtheNA, Ab 6.25 ug/ml
Histones [22] = assay: AtheNA, Ab 6.25 ug/ml
SSA [23] = assay: AtheNA, Ab 6.25 ug/ml
RNP (ribonucleoprotein) [24] = assay: AtheNA, Ab 6.25 ug/ml
Centromere B [25] = molecular target: T1, Centromere B; assay: AtheNA, Ab 50 ug/ml
Scl-70 [26] = molecular target: Scl-70 (UniProt P11387); assay: AtheNA, Ab 50 ug/ml
Sm (Smith antigen) [27] = assay: AtheNA, Ab 50 ug/ml
Jo-1 [28] = molecular target: T2, Jo-1; assay: AtheNA, Ab 50 ug/ml
SSB [29] = molecular target: SSB (UniProt P05455); assay: AtheNA, Ab 50 ug/ml
Histones [30] = assay: AtheNA, Ab 50 ug/ml
SSA [31] = assay: AtheNA, Ab 50 ug/ml
RNP (ribonucleoprotein) [32] = assay: AtheNA, Ab 50 ug/ml
Centromere B [33] = molecular target: T1, Centromere B; assay: AtheNA, Ab 25 ug/ml; remark: listed apart in the source
Scl-70 [34] = molecular target: Scl-70 (UniProt P11387); assay: AtheNA, Ab 25 ug/ml; remark: listed apart in the source
Sm (Smith antigen) [35] = assay: AtheNA, Ab 25 ug/ml; remark: listed apart in the source
Jo-1 [36] = molecular target: T2, Jo-1; assay: AtheNA, Ab 25 ug/ml; remark: listed apart in the source
SSB [37] = molecular target: SSB (UniProt P05455); assay: AtheNA, Ab 25 ug/ml; remark: listed apart in the source
Histones [38] = assay: AtheNA, Ab 25 ug/ml; remark: listed apart in the source
SSA [39] = assay: AtheNA, Ab 25 ug/ml; remark: listed apart in the source
RNP (ribonucleoprotein) [40] = assay: AtheNA, Ab 25 ug/ml; remark: listed apart in the source

SSB, sequence (P05455 whole entry): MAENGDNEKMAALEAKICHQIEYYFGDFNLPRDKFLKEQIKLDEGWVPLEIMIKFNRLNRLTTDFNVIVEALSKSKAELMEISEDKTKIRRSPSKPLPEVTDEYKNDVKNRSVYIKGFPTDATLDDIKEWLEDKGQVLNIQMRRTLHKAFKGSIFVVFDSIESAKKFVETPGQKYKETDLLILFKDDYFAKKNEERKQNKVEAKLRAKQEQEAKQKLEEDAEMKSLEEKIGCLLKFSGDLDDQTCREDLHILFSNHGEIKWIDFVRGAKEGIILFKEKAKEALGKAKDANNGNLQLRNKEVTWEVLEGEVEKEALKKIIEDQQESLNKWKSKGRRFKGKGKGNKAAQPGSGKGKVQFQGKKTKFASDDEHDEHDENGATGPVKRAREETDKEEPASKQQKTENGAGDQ
Scl-70, sequence (P11387 2-765 limits assumed): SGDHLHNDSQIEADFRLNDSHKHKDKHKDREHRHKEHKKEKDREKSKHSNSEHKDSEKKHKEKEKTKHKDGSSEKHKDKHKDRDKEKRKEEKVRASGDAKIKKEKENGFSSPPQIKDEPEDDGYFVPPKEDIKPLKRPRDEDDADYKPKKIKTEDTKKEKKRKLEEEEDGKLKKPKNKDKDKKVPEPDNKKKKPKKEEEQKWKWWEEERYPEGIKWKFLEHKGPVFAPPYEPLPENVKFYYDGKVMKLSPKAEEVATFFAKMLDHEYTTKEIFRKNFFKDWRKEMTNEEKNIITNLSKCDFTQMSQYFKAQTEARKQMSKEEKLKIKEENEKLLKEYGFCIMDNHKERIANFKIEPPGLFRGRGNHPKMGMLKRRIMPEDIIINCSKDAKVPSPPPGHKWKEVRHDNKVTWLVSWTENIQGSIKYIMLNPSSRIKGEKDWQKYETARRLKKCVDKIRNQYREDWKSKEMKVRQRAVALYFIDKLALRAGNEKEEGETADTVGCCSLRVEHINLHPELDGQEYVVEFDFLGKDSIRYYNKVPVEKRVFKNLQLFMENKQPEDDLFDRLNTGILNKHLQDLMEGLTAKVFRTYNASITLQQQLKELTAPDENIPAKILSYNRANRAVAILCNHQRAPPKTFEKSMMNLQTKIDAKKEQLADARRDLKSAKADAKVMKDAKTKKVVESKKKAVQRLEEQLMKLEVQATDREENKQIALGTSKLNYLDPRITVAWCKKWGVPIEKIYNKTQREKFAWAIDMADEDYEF

Substance: CH235UA/293i (antibody)
- Athena reading (relative luminescence units) (Centromere B [1]): 3
- Athena reading (relative luminescence units) (Scl-70 [2]): 3
- Athena reading (relative luminescence units) (Sm (Smith antigen) [3]): 6
- Athena reading (relative luminescence units) (Jo-1 [4]): 5
- Athena reading (relative luminescence units) (SSB [5]): 4
- Athena reading (relative luminescence units) (Histones [6]): 4
- Athena reading (relative luminescence units) (SSA [7]): 9
- Athena reading (relative luminescence units) (RNP (ribonucleoprotein) [8]): 3
- Athena reading (relative luminescence units) (Centromere B [9]): 3
- Athena reading (relative luminescence units) (Scl-70 [10]): 3
- Athena reading (relative luminescence units) (Sm (Smith antigen) [11]): 6
- Athena reading (relative luminescence units) (Jo-1 [12]): 5
- Athena reading (relative luminescence units) (SSB [13]): 3
- Athena reading (relative luminescence units) (Histones [14]): 3
- Athena reading (relative luminescence units) (SSA [15]): 9
- Athena reading (relative luminescence units) (RNP (ribonucleoprotein) [16]): 4
- Athena reading (relative luminescence units) (Centromere B [17]): 2
- Athena reading (relative luminescence units) (Scl-70 [18]): 3
- Athena reading (relative luminescence units) (Sm (Smith antigen) [19]): 5
- Athena reading (relative luminescence units) (Jo-1 [20]): 3
- Athena reading (relative luminescence units) (SSB [21]): 5
- Athena reading (relative luminescence units) (Histones [22]): 2
- Athena reading (relative luminescence units) (SSA [23]): 10
- Athena reading (relative luminescence units) (RNP (ribonucleoprotein) [24]): 2

Substance: DH270IA1 (antibody)
- Athena reading (Centromere B [25]): 10
- Athena reading (Scl-70 [26]): 4
- Athena reading (Sm (Smith antigen) [27]): 5
- Athena reading (Jo-1 [28]): 5
- Athena reading (SSB [29]): 6
- Athena reading (Histones [30]): 9
- Athena reading (SSA [31]): 5
- Athena reading (RNP (ribonucleoprotein) [32]): 2
- Athena reading (Centromere B [1]): 3
- Athena reading (Scl-70 [2]): 2
- Athena reading (Sm (Smith antigen) [3]): 5
- Athena reading (Jo-1 [4]): 6
- Athena reading (SSB [5]): 6
- Athena reading (Histones [6]): 4
- Athena reading (SSA [7]): 3
- Athena reading (RNP (ribonucleoprotein) [8]): 3
- Athena reading (Centromere B [33]): 5
- Athena reading (Scl-70 [34]): 1
- Athena reading (Sm (Smith antigen) [35]): 5
- Athena reading (Jo-1 [36]): 3
- Athena reading (SSB [37]): 6
- Athena reading (Histones [38]): 4
- Athena reading (SSA [39]): 3
- Athena reading (RNP (ribonucleoprotein) [40]): 2
- Athena reading (Centromere B [17]): 2
- Athena reading (Scl-70 [18]): 2
- Athena reading (Sm (Smith antigen) [19]): 3
- Athena reading (Jo-1 [20]): 5
- Athena reading (SSB [21]): 1
- Athena reading (Histones [22]): 2
- Athena reading (SSA [23]): 5
- Athena reading (RNP (ribonucleoprotein) [24]): 2

Substance: synagis (antibody)
- Athena reading (relative luminescence units) (Centromere B [1]): 2
- Athena reading (relative luminescence units) (Scl-70 [2]): 3
- Athena reading (relative luminescence units) (Sm (Smith antigen) [3]): 7
- Athena reading (relative luminescence units) (Jo-1 [4]): 6
- Athena reading (relative luminescence units) (SSB [5]): 5
- Athena reading (relative luminescence units) (Histones [6]): 3
- Athena reading (relative luminescence units) (SSA [7]): 2
- Athena reading (relative luminescence units) (RNP (ribonucleoprotein) [8]): 3
- Athena reading (relative luminescence units) (Centromere B [9]): 2
- Athena reading (relative luminescence units) (Sm (Smith antigen) [11]): 4
- Athena reading (relative luminescence units) (Jo-1 [12]): 4
- Athena reading (relative luminescence units) (SSB [13]): 4
- Athena reading (relative luminescence units) (Histones [14]): 2
- Athena reading (relative luminescence units) (SSA [15]): 11
- Athena reading (relative luminescence units) (RNP (ribonucleoprotein) [16]): 0
- Athena reading (relative luminescence units) (Centromere B [33]): 4
- Athena reading (relative luminescence units) (Scl-70 [34]): 2
- Athena reading (relative luminescence units) (Sm (Smith antigen) [35]): 3
- Athena reading (relative luminescence units) (Jo-1 [36]): 2
- Athena reading (relative luminescence units) (SSB [37]): 7
- Athena reading (relative luminescence units) (Histones [38]): 5
- Athena reading (relative luminescence units) (SSA [39]): 3
- Athena reading (relative luminescence units) (RNP (ribonucleoprotein) [40]): 4
- Athena reading (relative luminescence units) (Centromere B [17]): 2
- Athena reading (relative luminescence units) (Scl-70 [18]): 2
- Athena reading (relative luminescence units) (Sm (Smith antigen) [19]): 2
- Athena reading (relative luminescence units) (Jo-1 [20]): 1
- Athena reading (relative luminescence units) (SSB [21]): 5
- Athena reading (relative luminescence units) (Histones [22]): 3
- Athena reading (relative luminescence units) (SSA [23]): 2
- Athena reading (relative luminescence units) (RNP (ribonucleoprotein) [24]): 3

From patent US10344077
